Here are results for four molecules from patent US20200347130A1 (JIANGSU HENGRUI MEDICINE, published 2020).

Assay [1] addresses T1, CD96 epitope peptide #1 (17-36) (human).
T1 peptide: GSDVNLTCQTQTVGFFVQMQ
As to the kind of experiment: peptide ELISA ('-' indicates no binding, table note). The method, then:
(§1) The epitopes recognized by anti-CD96 antibody were detected by the assay of binding the antibody to different polypeptide fragments of CD96 protein. The fragments of different polypeptides of the CD96 antigen were coated on the microtiter plate. The signal density after the antibody was added was used to judge the binding activity of the antibody and the polypeptide. The specific experimental method is as follows:
(§2) The polypeptides were diluted to a concentration of 20 μg/ml with PBS buffer (Shanghai Yuanpei Biotechnology Co., Ltd. Cat No. B320), pH 7.4, added to a 96-well microtiter plate (Corning, Cat No. CLS3590-100EA) at a volume of 50 μl/well, and coated at 4° C. overnight. After discarding the liquid, 250 μl/well of 5% skim milk (BD skim milk, Cat No. 232100) blocking solution diluted with PBS was added, and the plate was incubated in an incubator at 37° C. for 3 hours. After blocking, the blocking solution was discarded, and the plate was washed 5 times with PBST buffer (pH 7.4 PBS containing 0.05% tween-20). 50 μl/well of different concentrations of the antibodies to be tested (hybridoma purification antibody or humanized antibody) diluted with sample dilution was added, and the plate was incubated in an incubator at 37° C. for 2 hours. […] After washing the plate 5 times with PBST, 50 μl/well of TMB chromogenic substrate (KPL, Cat No. 52-00-03) was added, the plate was incubated at room temperature for 5-15 min, followed by adding 50 μl/well of 1M H₂SO₄ to stop the reaction. The absorption value was read at 450 nm with a microplate reader (Thermo Scientific MuLtiskan MK3), and the epitopes that CD96 antibody can recognize were analyzed.
Background: ELISA stands for enzyme-linked immunosorbent assay.

Assay [2] addresses T2, CD96 epitope peptide #20 (295-314) (human).
T2 peptide: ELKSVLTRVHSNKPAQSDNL
The assay is described as above. The procedure:
as §1, §2

The target in assay [3] is T3, CD96 epitope peptide #17 (250-269) (human).
T3 peptide: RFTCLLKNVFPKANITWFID
The description is as above. The procedure:
as §1, §2

In assay [4] the target is T4, CD96 epitope peptide #13 (196-215) (human).
T4 peptide: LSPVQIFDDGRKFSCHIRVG
The description is as above. The procedure:
as §1, §2

Assay [5] addresses T5, CD96 epitope peptide #15 (220-239) (human).
T5 peptide: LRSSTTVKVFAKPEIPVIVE
Described as above. The procedure: as §1, §2

In assay [6] the target is T6, CD96 epitope peptide #6 (92-111) (human).
T6 peptide: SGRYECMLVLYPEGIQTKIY
The assay is described as above. The procedure:
as §1, §2

Assay [7] addresses T7, CD96 epitope peptide #22 (325-344) (human).
T7 peptide: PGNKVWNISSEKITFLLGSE
The description is as above. The method, then:
as §1, §2

Assay [8] addresses T8, CD96 epitope peptide #5 (77-86) (human).
T8 peptide: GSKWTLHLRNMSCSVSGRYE
Described as above. The procedure: as §1, §2

The target of assay [9] is T9, CD96 epitope peptide #16 (235-254) (human).
T9 peptide: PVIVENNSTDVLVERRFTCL
Described as above. The procedure:
as §1, §2

For assay [10], the target named is T10, CD96 epitope peptide #8 (122-141) (human).
T10 peptide: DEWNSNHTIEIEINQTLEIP
Described as above. The method, then: as §1, §2

In assay [11] the target is T11, CD96 epitope peptide #11 (166-185) (human).
T11 peptide: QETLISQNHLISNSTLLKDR
Described as above. The procedure: as §1, §2

In assay [12] the target is T12, CD96 epitope peptide #7 (107-126) (human).
T12 peptide: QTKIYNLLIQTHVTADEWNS
The description is as above. The method, then:
as §1, §2

Assay [13] concerns the target T13, CD96 epitope peptide #14 (211-230) (human).
T13 peptide: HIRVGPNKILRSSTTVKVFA
The description is as above. The method, then: as §1, §2

Assay [14] has as its target T14, CD96 epitope peptide #2 (32-51) (human).
T14 peptide: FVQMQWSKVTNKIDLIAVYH
Described as above. The procedure: as §1, §2

Assay [15] deals with T15, CD96 epitope peptide #12 (181-200) (human).
T15 peptide: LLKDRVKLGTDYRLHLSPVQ
The assay is described as above. The method, then: as §1, §2

The target of assay [16] is T1, CD96 epitope peptide #1 (17-36). The experiment in a line: peptide ELISA, peptide coated. The method, then: as §1, §2
Assay [17] addresses T3, CD96 epitope peptide #17 (250-269). The experiment in a line: peptide ELISA, peptide coated. The method, then:
as §1, §2

Assay [18] addresses T8, CD96 epitope peptide #5 (77-86 as …). As to the kind of experiment: peptide ELISA, peptide coated. The method, then: as §1, §2
In assay [19] the target is T13, CD96 epitope peptide #14 (211-230). As to the kind of experiment: peptide ELISA, peptide coated. The procedure:
as §1, §2

B1: ch1719 (antibody, human IgG4 S228P, kappa, V domains shown)
VH: QVQLKESGPGLVAPSQSLSITCTVSGFSLISYGVSWVRQPPGKGLEWLGVIWGDGNTNYHSVLISRLSIRKDDSKSQVFLKLNSLQTDDTATYYCAKNNYYGSRYGYPMDYWGQGTSVTVSS
VL: DIVMTQSHKFMSTSVGDRVSITCKATQDVGTAVAWYQQKPGHSPKLLIYWASTRHTGVPERFTGSGSGTDFTLTIDNVQSEDLADYFCQQYGSSVLTFGAGTKVELRR
notes: also called chimeric antibody corresponding to m1719
For B1, the binding result in [1], in [2], in assay [3], in [4], in assay [5] and in [6] was “no binding” each time. In addition, the binding result in [7], in assay [8], in assay [9], in assay [10], in assay [11] and in assay [12] was “no binding” each time. The binding result in [13], in assay [14] and in assay [15] was “no binding” each time.

B2: ch1721 (antibody, human IgG4 S228P, kappa, V domains shown)
VH: QVQLKESGPGLVAPSQSLSITCTVSGFSLISYGVNWVRQPPGKGLEWLGVIWGDGSTNYHSALISRLSISKDDSKSQVFLNLNSLQTDDTATYYCAKNYFYGSRYGYAMDSWGQGISVTVSS
VL: DIQMTQSPASLSAAVGETVTITCRASENIYSSLAWYQQKQGKSPQLLVYNAKTLIETVASRFSGSGSGTQYSLKINSLQPEDFGSFYCQHHYGTPYTFGGGTKLEIKR
notes: also called chimeric antibody corresponding to m1721
Take B2: the binding result in assay [16], in [17], in assay [18] and in [19] was “binds” in each case.

B3: ch1720 (antibody, human IgG4 S228P, kappa, V domains shown)
VH: EFQLQQSGPELVKPGASVKISCKASAYSLTDYNMNWVKQSNGKSLEWIGVINPSYGISSYNQKFKGKATLTVDQSSSTAYMHLNSLTSEDSAVYYCARQLRLPGYFDVWGTGTTVTVSS
VL: DIKMTQSPSSKNASLGERVTITCKASQDINSYLNWFQQKPGKSPKTLIYRASRLVDGVPSRFSGSGSGQDYSLTISSLEYEDMGIYYCLKYDEFPYTFGGGTKLEIKR
notes: also called chimeric antibody corresponding to m1720
B3: the binding result in assay [1], in [2], in assay [3], in assay [4], in [5] and in assay [6] was “no binding” throughout. The binding result in [7], in [8], in [9], in assay [10], in assay [11] and in assay [12] was “no binding” throughout. Moreover, the binding result in assay [13], in assay [14] and in assay [15] was “no binding” throughout.

B4: ch1718 (antibody, human IgG4 S228P, kappa, V domains shown)
VH: EFQLQQSGPELVKPGASVKISCKASAYSITDYNMNWVKQSNGKSLEWIGVINPSYGITDYNQNFKDKATLTVDQSSSTAYMQLNSLTSEDSAVYYCAIQLRLPGYFDVWGTGTTVIVSS
VL: DIKMTQSPSSMYASLGERVTITCKASQDINNYLNWFQQKPGKSPKTLIYRANRLVDGVPSRFSGSGSGQDYSLTISSLEYEDMGIYYCLKYDEFPYTFGGGTKVEIKR
notes: also called chimeric antibody corresponding to m1718
Take B4: the binding result in assay [16], in [17], in assay [18] and in assay [19] was “binds” in each case.
